Laboratory results from PMC10052277, “Detection of SARS-CoV-2 receptor binding domain using fluorescence probe and DNA flowers enabled by rolling circle amplification”.
Read-outs that look alike come from different tables or passages of the source.

How the values were obtained:
SARS-CoV-2 Spike RBD [1] = biological target: T1, SARS-CoV-2 Spike RBD (SARS-CoV-2, UniProt P0DTC2 319-541); conditions: protein: commercial; tags: C-terminal 6xHis; label: 5'-FAM
SARS-CoV-2 Spike RBD [2] = biological target: T1, SARS-CoV-2 Spike RBD

Row | Binder | binding result (SARS-CoV-2 Spike RBD [1]) | binding result (SARS-CoV-2 Spike RBD [2])
1 | FAM-Aptamer (ssDNA) DNA: CAGCACCGACCTTGTGCTTTGGGAGTGCTGGTCCAAGGGCGTTAATGGACA | binds | –
2 | Aptamer (ssDNA) DNA: CAGCACCGACCTTGTGCTTTGGGAGTGCTGGTCCAAGGGCGTTAATGGACA | – | binds
